Assay results published in the supplement of paper PMC10567573.

B1: LARP4 (parent)
chain: WTVANMEEIKKLTTDPDLILEVLR
B2: ZNF649 (parent)
chain: YQAGKPDALTKLEQGEPLWTLEDE

Variants of: B1
Assay: protein stability index of a GFP-peptide fusion (GPS, HEK-293T) (PSI 1-6); higher = more stable
Settings: c terminus: a fixed tail appended
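Also: lentivirally expressed fusions sorted by FACS into six bins by GFP to DsRed ratio, PSI derived from sequencing read proportions per bin multiplied by bin number.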

Row | Variant | protein stability index
1 | E21V | 1.86
2 | E21C | 1.69
3 | E21Y | 2.12
4 | E21S | 1.66
5 | E21H | 1.58
6 | E21I | 1.85
7 | E21M | 2.08
8 | E21R | 1.92
9 | E21N | 2.32
10 | E21A | 2.1
11 | E21F | 1.63
12 | E21P | 1.98
13 | E21K | 2.36
14 | E21D | 2.31
15 | E21L | 1.48
16 | E21G | 2.21
17 | E21Q | 1.6
18 | E21T | 1.9
19 | E21W | 2.1
20 | V22I | 2.14
21 | V22H | 3.48
22 | V22F | 2.77
23 | V22A | 2.79

Row | Variant | protein stability index
24 | V22G | 2.48
25 | V22C | 2.86
26 | V22T | 2.25
27 | V22M | 1.91
28 | V22S | 2.56
29 | V22Y | 2.64
30 | V22L | 2.34
31 | V22N | 3.25
32 | V22D | 3.77
33 | V22R | 2.48
34 | V22E | 3.59
35 | V22W | 2.33
36 | V22K | 3.3
37 | V22P | 2.23
38 | V22Q | 3.18
39 | D17E | 1.79
40 | D17F | 1.77
41 | D17S | 2.02
42 | D17Q | 2.32
43 | D17P | 2.2
44 | D17I | 1.25
45 | D17Y | 1.53
46 | D17K | 2.05

Row | Variant | protein stability index
47 | D17C | 1.44
48 | D17W | 1.49
49 | D17A | 2.09
50 | D17M | 2.16
51 | D17G | 1.51
52 | D17V | 1.98
53 | D17R | 1.86
54 | D17H | 1.88
55 | D17L | 1.52
56 | D17T | 1.77
57 | D17N | 1.93
58 | L23I | 2.65
59 | L23V | 2.85
60 | L23Y | 3.06
61 | L23K | 3.28
62 | L23M | 2.12
63 | L23D | 4.03
64 | L23W | 2.96
65 | L23P | 2.89
66 | L23E | 2.96
67 | L23F | 2.46
68 | L23A | 2.37
69 | L23H | 2.61

Row | Variant | protein stability index
70 | L23R | 2.47
71 | L23C | 3.17
72 | L23Q | 2.63
73 | L23S | 3.27
74 | L23N | 3.56
75 | L23T | 3.08
76 | R24H | 1.75
77 | R24S | 2.27
78 | R24E | 2.53
79 | R24K | 1.82
80 | R24G | 2.65
81 | R24Q | 2.38
82 | R24P | 2.37
83 | R24L | 1.12
84 | R24N | 2.48
85 | R24Y | 1.57
86 | R24F | 1.74
87 | R24M | 1.47
88 | R24A | 2.12
89 | R24T | 2.5
90 | R24C | 2.3
91 | R24W | 2.31
92 | R24I | 2.14

Row | Variant | protein stability index
93 | R24D | 2
94 | R24V | 1.83
95 | L20G | 2.01
96 | L20R | 2.38
97 | L20E | 3.68
98 | L20S | 2.1
99 | L20H | 2.64
100 | L20C | 2.56
101 | L20M | 2.02
102 | L20V | 2.19
103 | L20T | 2.52
104 | L20F | 2.15
105 | L20P | 3.02
106 | L20I | 2.1
107 | L20W | 2.01
108 | L20D | 3.74
109 | L20K | 3.53
110 | L20Q | 3.64
111 | L20Y | 2.17
112 | L20A | 3.37
113 | L20N | 3.24
114 | I19M | 2.73
115 | I19T | 2.96

Row | Variant | protein stability index
116 | I19S | 3.09
117 | I19W | 2.47
118 | I19C | 1.96
119 | I19D | 3.77
120 | I19K | 3.21
121 | I19A | 2.49
122 | I19G | 2.26
123 | I19H | 2.82
124 | I19N | 2.91
125 | I19L | 2.12
126 | I19R | 3.21
127 | I19E | 3.4
128 | I19V | 1.59
129 | I19F | 2.18
130 | I19Q | 3.12
131 | I19P | 3.42
132 | I19Y | 2.67
133 | P16Q | 1.84
134 | P16V | 1.2
135 | P16R | 2.25
136 | P16N | 1.93
137 | P16M | 2.11
138 | P16Y | 1.91

Row | Variant | protein stability index
139 | P16T | 1.89
140 | P16W | 1.43
141 | P16S | 2.28
142 | L18N | 3.53
143 | L18H | 2.6
144 | L18W | 2.54
145 | L18P | 2.33
146 | L18E | 3.67
147 | L18M | 2.55
148 | L18G | 2.95
149 | L18T | 2.26
150 | L18F | 1.92
151 | L18A | 2.71
152 | L18S | 3.05
153 | L18V | 2.99
154 | L18C | 2.34
155 | L18I | 2.5
156 | L18R | 2.87
157 | L18Q | 3.13
158 | L18Y | 3.46
159 | L18K | 2.8
160 | L18D | 2.77

Variants of: B2
Assay: as above
Settings: c terminus: a fixed tail appended

Row | Variant | protein stability index
161 | Y1C | 5.06
162 | Y1G | 4.71
163 | Y1I | 5.01
164 | Y1F | 3.39
165 | Y1H | 5.25
166 | Y1D | 5.21
167 | Y1A | 4.88
